± gives the uncertainty stated by the source.
B1: Histone-lysine N-methyltransferase SETD2, residues 2382 to 2430; numbered along this chain, Q9BYW2 (parent)
chain: SPPKPKTIVLPPNWKTARDPEGKIYYYHVITRQTQWDPPTWESPGDDAS

Variants of: B1
Experiment: abundance fitness (aPCA) (normalised: wild type 0, dead -1); higher = more abundant; growth selection in yeast, the domain comes from the species named
Details: Homo sapiens

Which abundance fitness does the source give for SPPKPKTIVLPPNWKTARDPEGKIYCYHVITRQTQWDPPTWESPGDDAS [Y26C] here?
The abundance fitness was -0.853 ± 0.3.

Which abundance fitness does the source give for SPPKPKTIVLPPNWKTARDPEGKIYQYHVITRQTQWDPPTWESPGDDAS [Y26Q] here?
The abundance fitness was -0.777 ± 0.12.

With SPPKPKTIVLPPNWKTARDPEGKIYPYHVITRQTQWDPPTWESPGDDAS [Y26P] as the variant, how does the abundance fitness read?
Its abundance fitness is -0.765 ± 0.057.

Which abundance fitness does the source give for SPPSPKTIVLPPNWKTARDPEGKIYYYHVITRQTQWDPPTWESPGDDAS [K4S] here?
The abundance fitness was 0.007 ± 0.037.

With SPPKPKTIVLLPNWKTARDPEGKIYYYHVITRQTQWDPPTWESPGDDAS [P11L] as the variant, how does the abundance fitness read?
Its abundance fitness is -0.279 ± 0.054.

For SPPKPKTIVLDPNWKTARDPEGKIYYYHVITRQTQWDPPTWESPGDDAS [P11D], which abundance fitness is on record?
Its abundance fitness is -0.156 ± 0.06.

For SPPKPKTIVLPPNWKTARDPEGKIYYYHVITRQIQWDPPTWESPGDDAS [T34I], which abundance fitness is on record?
Its abundance fitness is -0.149 ± 0.079.

For SPPKPKTIVLPPNWKTARDPEGKIYYYHVITRQPQWDPPTWESPGDDAS [T34P], which abundance fitness is on record?
Its abundance fitness is -0.29 ± 0.068.

Which abundance fitness does the source give for SPPKPKTIVLPPNWKTARDPETKIYYYHVITRQTQWDPPTWESPGDDAS [G22T] here?
Its abundance fitness is -1.02 ± 0.078.

With SPPKPKTIVLPPNWKTARDPELKIYYYHVITRQTQWDPPTWESPGDDAS [G22L] as the variant, how does the abundance fitness read?
The abundance fitness was -0.593 ± 0.11.

With SPPKCKTIVLPPNWKTARDPEGKIYYYHVITRQTQWDPPTWESPGDDAS [P5C] as the variant, how does the abundance fitness read?
The abundance fitness was -0.396 ± 0.079.

Which abundance fitness does the source give for SPPKHKTIVLPPNWKTARDPEGKIYYYHVITRQTQWDPPTWESPGDDAS [P5H] here?
Its abundance fitness is -0.17 ± 0.13.

With SPPKVKTIVLPPNWKTARDPEGKIYYYHVITRQTQWDPPTWESPGDDAS [P5V] as the variant, how does the abundance fitness read?
The abundance fitness was 0.162 ± 0.034.

Which abundance fitness does the source give for SPPKPKTIVLPPNWKTARDPEGKIYYYHVITRQTQWDPPTHESPGDDAS [W41H] here?
The abundance fitness was 0.117 ± 0.081.

Which abundance fitness does the source give for SPPKPKTIVLPPNWKTARDPEGKIYYYHVITRQTQWDPPTPESPGDDAS [W41P] here?
Its abundance fitness is -0.058 ± 0.095.

For SPPKPKTIVLPPNWKTARDPEGKIYYYHVITRQTQWDPPTVESPGDDAS [W41V], which abundance fitness is on record?
The abundance fitness was 0.077 ± 0.035.

Which abundance fitness does the source give for SPPKPKTIVLPPNWKTARDPEGKIYYYHVITRQTQWDPPTLESPGDDAS [W41L] here?
The abundance fitness was 0.078 ± 0.033.

Which abundance fitness does the source give for SPPKPKTIVLPPNWKTARDPEGKIYYYHVITRQTQWDPPTGESPGDDAS [W41G] here?
Its abundance fitness is 0.034 ± 0.051.

For SPPKPKTIVLPPNWKTARDPEGKIYYYHVFTRQTQWDPPTWESPGDDAS [I30F], which abundance fitness is on record?
The abundance fitness was -0.361 ± 0.2.

With SPPKPKTIVLPPNWKTARDPEGKIYYYHVATRQTQWDPPTWESPGDDAS [I30A] as the variant, how does the abundance fitness read?
Its abundance fitness is -0.314 ± 0.057.

With SPPKPKTIVLPPNWKTARDPEGKIYYYHVNTRQTQWDPPTWESPGDDAS [I30N] as the variant, how does the abundance fitness read?
The abundance fitness was -0.046 ± 0.12.

Which abundance fitness does the source give for SPPKPKTIVLPPNWKTARDPEGKIYYYHVTTRQTQWDPPTWESPGDDAS [I30T] here?
The abundance fitness was -0.013 ± 0.07.

Which abundance fitness does the source give for SPPKPKTIVLPPNWKTARDPEGKIYYYHVITRQTQWDPPTWESMGDDAS [P44M] here?
Its abundance fitness is -0.016 ± 0.038.

Which abundance fitness does the source give for SPPKPKTIVLPPNWKTARDPEGKIYYYHVITRQTQWDQPTWESPGDDAS [P38Q] here?
The abundance fitness was -0.255 ± 0.069.

For SPPKPKTIVLPPNWKTARDPEGKIYYYHVITRQTQVDPPTWESPGDDAS [W36V], which abundance fitness is on record?
The abundance fitness was 0.083 ± 0.042.

With SPPKPKTIVLPPNWKTARDPEGKIYYYHVITRQTQWDPQTWESPGDDAS [P39Q] as the variant, how does the abundance fitness read?
Its abundance fitness is -0.659 ± 0.044.

For SPPKPKTIVLPPNWKTARDPEGKIYYYHVITRQTQWDPNTWESPGDDAS [P39N], which abundance fitness is on record?
The abundance fitness was -0.391 ± 0.23.

For SPPKPKTIVLPPNWKTARDPEGKIYYYHVITRQTQWDPLTWESPGDDAS [P39L], which abundance fitness is on record?
The abundance fitness was -0.892 ± 0.14.

Which abundance fitness does the source give for SPPKPKTIVLPPNWKTARDNEGKIYYYHVITRQTQWDPPTWESPGDDAS [P20N] here?
Its abundance fitness is -0.008 ± 0.035.

With SPPKPKTIVLPPNWKTARDSEGKIYYYHVITRQTQWDPPTWESPGDDAS [P20S] as the variant, how does the abundance fitness read?
Its abundance fitness is -0.106 ± 0.036.

For SPPKPKTIVLPPNWKTARDYEGKIYYYHVITRQTQWDPPTWESPGDDAS [P20Y], which abundance fitness is on record?
Its abundance fitness is -0.331 ± 0.052.

Which abundance fitness does the source give for SPPKPKTIVLPPNWKTARDEEGKIYYYHVITRQTQWDPPTWESPGDDAS [P20E] here?
Its abundance fitness is -0.074 ± 0.053.

For SPPKPKTIVLPPNWKTARDPEGKIYYYHVITRQTQWYPPTWESPGDDAS [D37Y], which abundance fitness is on record?
Its abundance fitness is -0.314 ± 0.1.

Which abundance fitness does the source give for SPPKPKTIVLPPNWKTARDPEGKIYYYHVITRQTQWVPPTWESPGDDAS [D37V] here?
The abundance fitness was 0.013 ± 0.045.

Which abundance fitness does the source give for SPPKPKTIVLPPNWKTARDPEGKIYYYHVITRQTQWIPPTWESPGDDAS [D37I] here?
Its abundance fitness is 0.005 ± 0.094.

With SPPKPKTIVLPPNPKTARDPEGKIYYYHVITRQTQWDPPTWESPGDDAS [W14P] as the variant, how does the abundance fitness read?
Its abundance fitness is -1.03 ± 0.32.

With SPPKPKTIVLPPNDKTARDPEGKIYYYHVITRQTQWDPPTWESPGDDAS [W14D] as the variant, how does the abundance fitness read?
The abundance fitness was -0.74 ± 0.36.

With SPPKPKTIVLPPNGKTARDPEGKIYYYHVITRQTQWDPPTWESPGDDAS [W14G] as the variant, how does the abundance fitness read?
Its abundance fitness is -0.855 ± 0.086.

With SPPKPKTIVLPPNWKTARTPEGKIYYYHVITRQTQWDPPTWESPGDDAS [D19T] as the variant, how does the abundance fitness read?
Its abundance fitness is 0.102 ± 0.069.

For SPPKPKTIVLPPNWKTARWPEGKIYYYHVITRQTQWDPPTWESPGDDAS [D19W], which abundance fitness is on record?
Its abundance fitness is -0.889 ± 0.095.

Which abundance fitness does the source give for SPPKPKTIVLPPNWKTARPPEGKIYYYHVITRQTQWDPPTWESPGDDAS [D19P] here?
The abundance fitness was -0.426 ± 0.1.

With SPPKPKVIVLPPNWKTARDPEGKIYYYHVITRQTQWDPPTWESPGDDAS [T7V] as the variant, how does the abundance fitness read?
Its abundance fitness is -0.148 ± 0.057.

With SPPKPKGIVLPPNWKTARDPEGKIYYYHVITRQTQWDPPTWESPGDDAS [T7G] as the variant, how does the abundance fitness read?
The abundance fitness was 0.138 ± 0.033.

Which abundance fitness does the source give for SPPKPRTIVLPPNWKTARDPEGKIYYYHVITRQTQWDPPTWESPGDDAS [K6R] here?
Its abundance fitness is -0.046 ± 0.032.

With SPPKPKTIVLPPNWKTARDPEGKIYYYHVITRQTQWDPPTWESPGDWAS [D47W] as the variant, how does the abundance fitness read?
The abundance fitness was -0.288 ± 0.068.

With SPPKPKTIVLPPNWKTARDPEGKIYYYHVITRQTQWDPPTWESPGDTAS [D47T] as the variant, how does the abundance fitness read?
The abundance fitness was -0.032 ± 0.059.

With SPPKPKTIVLPPNWKTIRDPEGKIYYYHVITRQTQWDPPTWESPGDDAS [A17I] as the variant, how does the abundance fitness read?
The abundance fitness was -0.184 ± 0.05.

With SPPKPKTIVLPPNWKTCRDPEGKIYYYHVITRQTQWDPPTWESPGDDAS [A17C] as the variant, how does the abundance fitness read?
The abundance fitness was -0.146 ± 0.078.

With SPPKPKTIVLPPNWKTARDPEGKIYYYHVITRQTQWDPPCWESPGDDAS [T40C] as the variant, how does the abundance fitness read?
The abundance fitness was 0.151 ± 0.061.

With SPPKPKTIVLPPNWQTARDPEGKIYYYHVITRQTQWDPPTWESPGDDAS [K15Q] as the variant, how does the abundance fitness read?
The abundance fitness was -0.291 ± 0.26.

For SLPKPKTIVLPPNWKTARDPEGKIYYYHVITRQTQWDPPTWESPGDDAS [P2L], which abundance fitness is on record?
The abundance fitness was 0.317 ± 0.065.

Which abundance fitness does the source give for SIPKPKTIVLPPNWKTARDPEGKIYYYHVITRQTQWDPPTWESPGDDAS [P2I] here?
Its abundance fitness is 0.712 ± 0.1.

For SPPKPKTIVLPHNWKTARDPEGKIYYYHVITRQTQWDPPTWESPGDDAS [P12H], which abundance fitness is on record?
Its abundance fitness is -0.528 ± 0.21.
